# Earlier results as cited in paper PMC4586518, “Melanin production through novel processing of proopiomelanocortin in the extracellular compartment of the auricular skin of C57BL/6 mice after UV-irradiation” (Scientific Reports, 2015).
# Tests used:
# MC-1R [1] = test system: MC-1R; design: method as in 2 sources, ref 23 = [23]; PMID 17317724; doi:10.1096/fj.06-7398com; Rousseau K. et al. Proopiomelanocortin (POMC), the ACTH/melanocortin precursor, is secreted by human epidermal keratinocytes and melanocytes and stimulates melanogenesis . FASEB J 21 , 1844 – 1856 ( 2 ||| ref 34 = [34]; PMID 1556905; doi:10.1016/0024-3205(92)90347-r; Slominski. A. et al. Melanotropic activity of gamma MSH peptides in melanoma cells . Life Sci , 50 , 1103 – 1108 ( 1992 ). 1556905 10.1016/0024-3205(92)90347-r; conditions: MC-1R
# Source text: To clarify the mechanism of melanin production after UV-irradiation, we assessed the expression of POMC and POMC-derived peptides after UV-irradiation to the skin of the murine auricle.
# MC-1R [2] = test system: MC-1R
# Source text: Melanin plays an important role in protecting skin after UV-irradiation. α-MSH is a major catalyst for melanogenesis in the skin following UV-irradiation. α-MSH-LI and ACTH-LI may be present in culture media of normal keratinocytes, fibroblasts, melanocytes, and their cell extracts. Although POMC and POMC-derived peptides such as ACTH and α-MSH are released from the intermedia of the pituitary, it is unlikely that pituitary secretions contribute to local pigmentation. In the present report, POMC-related peptides were detected in the UV-irradiated auricle ... || Structure-activity analyses of α-MSH have reported information on the essential sequence required for MC-1R binding and melanin production. […] However, Ac-His-Phe-Arg-Trp-NH2 had 400,000-fold less activity (EC50 20 μM) than α-MSH in a frog skin bioassay[31] and approximately 7,000-fold less activity (EC50 1 μM) in a lizard skin bioassay. Furthermore, the N-terminal region of α-MSH is ...
molecule,measurement,setting,value
"proopiomelanocortin (protein, UniProt P01189 1-267, looked up, full-length, precursor of α-MSH and ACTH; 32 kDa) MPRSCCSRSGALLLALLLQASMEVRGWCLESSQCQDLTTESNLLECIRACKPDLSAETPMFPGNGDEQPLTENPRKYVMGHFRWDRFGRRNSSSSGSSGAGQKREDVSAGEDCGPLPEGGPEPRSDGAKPGPREGKRSYSMEHFRWGKPVGKKRRPVKVYPNGAEDESAEAFPLEFKRELTGQRLREGDGPDGPADDGAGAQADLEHSLLVAAEKKDEGPYRMEHFRWGSPPKDKRYGGFMTSEKSQTPLVTLFKNAIIKNAYKKGE",affinity for MC-1R,MC-1R [1],markedly low
same,influence on melanogenesis via MC-1R,MC-1R [2],only slightly influenced melanogenesis via MC-1R
